These results are taken from patent publication US5543308.

Series [1] deals with FseI restriction endonuclease (from pRMFseR1, NEB#918, His at position 2) T2H (Frankia species NRRL 18528). The series can be described thus: cleavage_in_vitro. The conditions noted are these: crude extract, NEBuffer 1, 30 C, 1 h; estimated titer.
For series [2], the system named is FseI restriction endonuclease (from pRMFseR2, NEB#943, ATCC 69707) (Frankia species NRRL 18528). The series can be described thus: cleavage_in_vitro. The following applies: crude extract; estimated titer; substrate inferred from section 7.

Adenovirus-2 DNA: the activity (units/g cells) in series [1] and in series [2] was above 10000 each time.
